Measurements from the DeepSol protein solubility set.

Assay: soluble on expression in E. coli; label from the status in PepcDB or PDB records

Sequence	soluble on expression in E. coli
MKRLLFLGVDVGGTKTLAVLSDEQGNVLAIYKGKGANYQVVGKENAVRNLKDVIEAILDRAGKTRKEIDFAFFGYAGADFDYEMKIVREILEKLGLEKFDFDNDGRIALRSGVFDDIGIMVSCGTGSISYASDGRRVNRIGGLSFSLGERLGSHYIASLVTSAVMRAKDGRDDWTTLVDEVEKEIGPVENLLRYDYEGGYTAELVKKVNQALFRCAEKGDAVSLRIFDEIVVEVKKIIDAHRKALNFTPPIKLILEGSFFKNAPSLLINMIESAIGREYEIVIPEHDPVIGAVLFAMERVGLRVTEDLYNRLVRNYLREVKK	soluble
MKKIIETQRAPGAIGPYVQGVDLGSMVFTSGQIPVCPQTGEIPADVQDQARLSLENVKAIVVAAGLSVGDIIKMTVFITDLNDFATINEVYKQFFDEHQATYPTRSCVQVARLPKDVKLEIEAIAVRSA	soluble
GMIPFPESRLAAQMSFVVEIDKLKTILRQTLLTDSSRRENDAEHSWHIATMAFLLAEYADEAVQIGRVARMLLIHDIVEIDAGDTFIHDEAGNEDKEERERKAAARLFGLLPPDQAAEYSALWQEYEARETADARFADALDRLQPLLHNFETEGGTWKPHGVTRAKVDKLLPRIEAGSKRLGAYARALVDEAVRRGYLAP	soluble
MPVFHTRTIESILEPVAQQISHLVIMHEEGEVDGKAIPDLTAPVAAVQAAVSNLVRVGKETVQTTEDQILKRDMPPAFIKVENACTKLVQAAQMLQSDPYSVPARDYLIDGSRGILSGTSDLLLTFDEAEVRKIIRVCKGILEYLTVAEVVETMEDLVTYTKNLGPGMTKMAKMIDERQQELTHQEHRVMLVNSMNTVKELLPVLISAMKIFVTTKNSKNQGIEEALKNRNFTVEKMSAEINEIIRVLQLTSWDEDAWASKDTEAMKRALASIDSKLNQAKGWLRDPSASPGDAGEQAIRQILDEAGKVGELCAGKERREILGTCKMLGQMTDQVADLRARGQGSSPVAMQKAQQVSQGLDVLTAKVENAARKLEAMTNSKQSIAKKIDAAQNWLADPNGGPEGEEQIRGALAEARKIAELCDDPKERDDILRSLGEISALTSKLADLRRQGKGDSPEARALAKQVATALQNLQTKTNRAVANSRPAKAAVHLEGKIEQAQRWIDNPTVDDRGVGQAAIRGLVAEGHRLANVMMGPYRQDLLAKCDRVDQLTAQLADLAARGEGESPQARALASQLQDSLKDLKARMQEAMTQEVSDVFSDTTTPIKLLAVAATAPPDAPNREEVFDERAANFENHSGKLGATAEKAAAVGTANKSTVEGIQASVKTARELTPQVVSAARILLRNPGNQAAYEHFETMKNQWIDNVEKMTGLVDEAIDTKSLLDASEEAIKKDLDKCKVAMANIQPQMLVAGATSIARRANRILLVAKREVENSEDPKFREAVKAASDELSKTISPMVMDAKAVAGNISDPGLQKSFLDSGYRILGAVAKVREAFQPQEPDFPPPPPDLEQLRLTDELAPPKPPLPEGEVPPPRPPPPEEKDEEFPEQKAGEVINQPMMMAARQLHDEARKWSSKGNDIIAAAKRMALLMAEMSRLVRGGSGTKRALIQCAKDIAKASDEVTRLAKEVAKQCTDKRIRTNLLQVCERIPTISTQLKILSTVKATMLGRTNISDEESEQATEMLVHNAQNLMQSVKETVREAEAASIKIRTDAGFTLRWVRKTPWYQ	soluble
MEDDDSPSSRDLDAQNPYDRLLALDTSTVDPNCNLDSVSAIYLAMKSSKLECVDERGQDSLITSVCMEDEEDEELDEFDPYLFIKNLPNLSSVVPTFRPVLLPKQTRSCPPISLVLDLDETLVHSTLEPCGEVDFTFPVNFNEEEHMVYVRCRPHLKEFMERVSRLFEIIIFTASQSIYAEQLLNVLDPKRKLFRHRVYRDSCVFFDGNYLKDLSVLGRDLSRVIIVDNSPQAFGFQVENGVPIESWFNDPSDKELLHLLPFLESLIGVEDVRPMIAKKFNLREKIDAAVAAPEYPAEAGDPFER	soluble
GGRALRVLVDMDGVLADFEGGFLRKFRARFPDQPFIALEDRRGFWVSEQYGRLRPGLSEKAISIWESKNFFFELEPLPGAVEAVKEMASLQNTDVFICTSPIKMFKYCPYEKYAWVEKYFGPDFLEQIVLTRDKTVVSADLLIDDRPDITGAEPTPSWEHVLFTACHNQHLQLQPPRRRLHSWADDWKAILDSKRPC	soluble
MERVLITGGAGFIGSHLVDDLQQDYDVYVLDNYRTGKRENIKSLADDHVFELDIREYDAVEQIMKTYQFDYVIHLAALVSVAESVEKPILSQEINVVATLRLLEIIKKYNNHIKRFIFASSAAVYGDLPDLPKSDQSLILPLSPYAIDKYYGERTTLNYCSLYNIPTAVVKFFNVFGPRQDPKSQYSGVISKMFDSFEHNKPFTFFGDGLQTRDFVYVYDVVQSVRLIMEHKDAIGHGYNIGTGTFTNLLEVYRIIGELYGKSVEHEFKEARKGDIKHSYADISNLKALGFVPKYTVETGLKDYFNFEVDNIEEVTAKEVEMS	not soluble
MGSDKIHHHHHHMHNVDQQELSKFEQMAHSWWDPNGSFKPIHLLNPLRFNYIQTKANGLFGKKVLDVGCGGGILSEAMAQAGAIVTGIDMTTEPLEIAKQHAIENGLTIHYQQTTVEDLRLNHTACNAEKFDVVTCMEMLEHVPDPLSVIQSCKALLKPDGVLFLSTINRTLKAYMLVVIGAEYLLKMLPKGTHEFEKFIKPAELLTWCDQASLECKEMKGYHFNPLTEKFWLNNDVSCNYIAMLKAK	not soluble
MVFGENQDLIRTHFQKEADKVRAMKTNWGLFTRTRMIAQSDYDFIVTYQQAENEAERSTVLSVFKEKAVYAFVHLMSQISKDDYVRYTLTLIDDMLREDVTRTIIFEDVAVLLKRSPFSFFMGLLHRQDQYIVHITFSILTKMAVFGNIKLSGDELDYCMGSLKEAMNRGTNNDYIVTAVRCMQTLFRFDPYRVSFVNINGYDSLTHALYSTRKCGFQIQYQIIFCMWLLTFNGHAAEVALSGNLIQTISGILGNCQKEKVIRIVVSTLRNLITSNQDVYMKKQAALQMIQNRIPTKLDHLENRKFTDVDLVEDMVYLQTELKKVVQVLTSFDEYENELRQGSLHWSPAHKCEVFWNENAHRLNDNRQELLKLLVAMLEKSNDPLVLCVAAHDIGEFVRYYPRGKLKVEQLGGKEAMMRLLTVKDPNVRYHALLAAQKLMINNWKDLGLEI	not soluble
MGGSHHHHHHGMASALAQVAMSTLPVEDEESSESRMVVTFLMSALESMCKELAKSKAEVACIAVYETDVFVVGTERGRAFVNTRKDFQKDFVKYCVEEEEKAAEMHKMKSTTQANRMSVDAVEIETLRKTVEDYFCFCYGKALGKSTVVPVPYEKMLRDQSAVVVQGLPEGVAFKHPENYDLATLKWILENKAGISFIIKRPFLEPKKHVGGRVMVTDADRSILSPGGSCGPIKVKTEPTEDSGISLEMAAVTVKEESEDPDYYQYNIQGSHHSSEGNEGTEMEVPAEG	not soluble
LDGIAELTGARVEDLAGMDVFQGCPAEGLVSLAASVQPLRAAAGQVLLRQGEPAVSFLLISSGSAEVSHVGDDGVAIIARALPGMIVGEIALLRDSPRSATVTTIEPLTGWTGGRGAFATMVHIPGVGERLLRTARQRLAAFVSPIPVRLADGTQLMLRPVLPGDRERTVHGHIQFSGETLYRRFMSARVPSPALMHYLSEVDYVDHFVWVVTDGSDPVADARFVRDETDPTVAEIAFTVADAYQGRGIGSFLIGALSVAARVDGVERFAARMLSDNVPMRTIMDRYGAVWQREDVGVITTMIDVPGPGELSLGREMVDQINRVARQVIEAVG	not soluble
MALPPGLMVVEEIISSEEEKMLLESVDWTEDTDNQNSQKSLKHRRVKHFGYEFHYENNNVDKDKPLSGGLPDICESFLEKWLRKGYIKHKPDQMTINQYEPGQGIPAHIDTHSAFEDEIVSLSLGSEIVMDFKHPDGIAVPVMLPRRSLLVMTGESRYLWTHGITCRKFDTVQASESLKSGIITSDVGDLTLSKRGLRTSFTFRKVRQTPCNCSYPLVCDSQRKLEHHHHHH	soluble
GSMTQIHQINDIDVHRITSGQVITDLTTAVKELVDNSIDANANQIEIIFKDYGLESIECSDNGDGIDPSNYEFLALKHYTSKIAKFQDVAKVQTLGFRGEALSSLCGIAKLSVITTTSPPKADKLEYDMVGHITSKTTTSRNKGTTVLVSQLFHNLPVRQKEFSKTFKRQFTKCLTVIQGYAIINAAIKFSVWNITPKGKKNLILSTMRNSSMRKNISSVFGAGGMRGLEEVDLVLDLNPFKNRMLGKYTDDPDFLDLDYKIRVKGYISQNSFGCGRNSKDRQFIYVNKRPVEYSTLLKCCNEVYKTFNNVQFPAVFLNLELPMSLIDVNVTPDKRVILLHNERAVIDIFKTTLSDYYNRQELALPK	soluble
MKKGILIILLVLMVLSCGTSKKVTLPDKDIKIENETVFFKNEKYTGKINLKDKNSVSGFITFKDGHLDGPTELKNDKKQMYTKFNIVNNQFEGETVVKNADQGINMTVNYNNGKIVKLLGDYSKTVKYDITFVDGLANGWFESEGEKFVFSDGVLTLEEDGITTEVKYYVNQETGDMGMEFFINGKSAGRDEKPNKVFGMEYFRIIAISSILEENSKGKDK	not soluble
MSAKIYRPAKTAMQSGTAKTNVWVLEFDAEVPRKIDPIMGYTSSSDMKQQVKLTFETQEQAEAYAQRKGIEYRVILPKEATRKVVSYTDNFRFNRTQPWTHLEHHHHHH	soluble
MTCEVLITEFVAHPSDITDAYARYQQRIQDAPLHIVCSSPRPLPSKGSAYAQWSLRCESAYAQKSHPELMQCYELRSLVTYEETPDPDDSLIEKFFFEDCAEPTVYSASVNRLDIELGAVDTRCTDELCIVTPVFLAHSEHAEVLQSLYEVLVSNADPVAYAASIAECDDISQANLIGLLWVRDAQRTMSNVGDQIYAMGKTAWTGWILVEASKQEELQLQLSELIDATNAVAYLTATPW	soluble
GHVSDRPAGRMPLTVHRNVGRWLSEILHASIRDTGVSSRIEFVRRTLHGWVREEYSETELPNAVYRNLYFPVLDAQPAHAGSGKIETISECDRLKNLVRNVTDTLVENYPQGLESEALLIALDGVKLELARIRKDIEMYGDPRKR	soluble
MRKRLLGDEHPDVAFSLNNLATVLAATNHPEEALSHRIEASNINDQIIRNIFAFSSESDRLSFLDKIRNNFDLFLSLVCNHLANSNRAKLAALDFVLKRKALTASALAAQNQAFYNGRYPQLQEKFSQLRDLSNQIIHLTFAVPETDDLATYQDNIRQLQSRHNHLQKQLAAQVPEIQLSEQVFDCQAIAAALPHNSILVEFVRFDVFDFQAVSANGETQWHPARYLAFILTAGKPNAVQMIDLGVADTIDRLIQAFRLQASDYTLPTLAWGKAPKLRVKSYNPTPAIELSQALLEPIRGLVKDCRHLIIAPDGNLNLVPFQVLPIDATSSRLLMDEYTISYLGVGREILRSKFQPSTGSISAPLIIADPDFDLSGTGDWENNTRLDVRSLQLSNQFTETGLLRAPGTRFLGESVAKKLPDAKLYLGAEALETRLTNSNCPKIMLIATHGLFQSDSQAQPVTKRRNLLSMERQRTTKVENPMLRSGLALAGANTWLAGGTLPLAAGKGFVFAQDIANLDLWANELTVLSACDTARGDIKIGEGVFGLRRAFAVAGTKTLVMSLWSVPDKVTALLMERFFDNLQSGMSRSEALDSAQNYIRNITVKELRASALGLEVLKELLAVKELSANSRIDCQEDDTPLEHPFYWGAWICQGNTNPLVNLEHHHHHH	not soluble
MTMTETMNVDLLLEMESVHVKPFTEHDKVILRSYEAVVDGIASLIGPFCEIVLHSLEDLNTSAIKIANGENTGRQVGSPITDMALKMLRDIEGSERNFSRSYFTRAKGGVLMKSITVAIRNGENRVIGLLCINVNLDAPFSQVLKSFMPTQEAQEAASSVNFASDVEELVDQTVERTIEEINGDKSVSNNTKNRQIVMALFDKGIFDIKDAINRVADRLNISKHTVYLYIRQRKTEDDEK	not soluble
